Reference: article PMC4303316 (Biochemistry, 2014)
No end group written: not given here.

T1: EhPAK4 PBD, tag removed (crystallographic construct) (Entamoeba histolytica (strain HM-1:IMSS), UniProt C4LSU1 12-78)
T1 sequence (looked up): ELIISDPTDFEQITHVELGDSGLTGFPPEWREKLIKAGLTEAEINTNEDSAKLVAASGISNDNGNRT

B1: His6-EhPAK4 PBD (p21 binding domain of Entamoeba histolytica p21-activated kinase 4) (domain or fragment, Entamoeba histolytica (strain HM-1:IMSS), UniProt C4LSU1 12-78, looked up)
chain: T1 sequence (looked up)
B2: EhRacC^Q65L (GTPase-deficient EhRacC mutant, GTP-bound) (enzyme, Entamoeba histolytica (strain HM-1:IMSS), UniProt Q24816 1-182, looked up)
chain: MSEKPTSIKLVVVGDGAVGKTCLLISYSIRKFPEDYIPTVFDNYVVSLTAGTRQIQLALWDTAGLEEYDQLRPLSYSSASIFLICFSVTSSVSYDNVITKWHPEVIHFAPKVPIILVGTKLDTRNDPAIVKRLTEQGMTVINTAKGEELKNRIKAVKYIECSAKTSENLKTVFDEAVKTVLM
B3: His6-EhPAK5 PBD (p21 binding domain of Entamoeba histolytica p21-activated kinase 5) (domain or fragment, Entamoeba histolytica (strain HM-1:IMSS), UniProt C4MBQ2 105-161, looked up)
chain: His6-DISEPTDYHHLTHVAYEEGGFVGIPYEWENVFLACGITREEIKSNKEDAIKVLEFTQ

Columns and labels:
[1] = target: B2; test: SPR
[2] = target: T1, EhPAK4 PBD, tag removed …; test: SEC

B1
Kd [1]: 0.17 ± 0.03 µM

B2
stoichiometry N [2]: 1 EhRacC:EhPAK4

B3
Kd [1]: 1.9 ± 0.2 µM
